Source: patent US20260125454A1 (SHANGHAI JUNSHI BIOSCIENCES, published 2026)
Bridges are numbered along the chain shown (N, C = ends). Where no end group is shown, it is not given here. The star is where a group is joined. Biotin = O=C1N[C@H]2[C@H](CS[C@H]2CCCCC(=O)*)N1

T1: hCGRP(1-19) (human, N-terminal biotin; CYS residues at positions 7 and 12 theoretically form 1 intrachain disulfide bond)
T1 construct: also called polypeptide 1-19
T1 peptide: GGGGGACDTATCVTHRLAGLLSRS

T2: hCGRP(8-19) (human)
T2 construct: also called polypeptide 8-19
T2 peptide: Biotin-GGGGGVTHRLAGLLSRS

T3: hCGRP(8-26) (human, N-terminal biotin)
T3 construct: also called polypeptide 8-26
T3 peptide: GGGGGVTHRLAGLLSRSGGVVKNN

T4: hCGRP(1-37) (human, N-terminal biotin; C-terminal phenylalanine amide (F-NH2); CYS residues at positions 7 and 12 theoretically form 1 intrachain disulfide bond)
T4 construct: also called polypeptide 1-37; full-length hCGRP (1-37) polypeptide
T4 peptide: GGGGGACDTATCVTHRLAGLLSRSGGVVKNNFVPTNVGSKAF

T5: Biotin-huCGRPaSA (human, not fully specified; biotin (position not given))
T5 construct: exact construct ('aSA') not explained; also called Biotin CGRPaSA; full-length (1-37) CGRP
T5 peptide: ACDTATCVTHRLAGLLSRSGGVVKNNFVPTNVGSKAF

T6: Biotin-1-19 polypeptide (human, disulfide 2-7; not fully specified (N-terminus); printed as Biotin-Linker(G5)-ACDTATCVTHRLAGLLSRS; ends not checked; also: biotin, position not given here)
T6 construct: also called fragment CGRP (1-19); truncated (1-19) CGRP
T6 peptide: ACDTATCVTHRLAGLLSRS


Assays:
[1] = target: T1, hCGRP(1-19); test: BLI (Octet), biotin-peptide on SA probe, 45 nM Fab
Protocol: (§1) The kinetic parameters of C245 Fab (Fab monomer fragments derived from antibody C245) binding to six synthetic human CGRP alpha polypeptide fragments (polypeptide 1-13, polypeptide 1-19, polypeptide 1-37, polypeptide 8-19, polypeptide 8-26, and polypeptide 13-24) were determined on an Octet RBD 96e system. Human CGRP synthetic polypeptide fragments were immobilized on the surfaces of SA bioprobes (Sartorius, Cat. No. 18-5019) at the following concentrations: 46.5 nM for hCGRP (1-13), 8.5 nM for CGRP (1-19), 15.5 nM for hCGRP (1-37), 8.5 nM for hCGRP (8-19), 15.5 nM for hCGRP (8-26), and 46.5 nM for hCGRP (13-24). The immobilized synthetic human CGRP polypeptide fragments were bound to 45 nM of C245 Fab and the binding dissociation curves were fitted using analytical software.
(§2) The kinetic parameters of hu224 Fab (Fab monomer fragments derived from humanized antibody hu224) binding to four synthetic human CGRP alpha polypeptide fragments (polypeptide 1-13, polypeptide 1-19, polypeptide 1-37, and polypeptide 8-19) were determined on an Octet RBD 96e system. Human CGRP synthetic polypeptide fragments were immobilized on the surfaces of SA bioprobes (Sartorius, Cat. No. 18-5019) at the following concentrations: 8.5 nM for CGRP (1-19), 15.5 nM for hCGRP (1-37), 10 nM for hCGRP (8-19), and 15.5 nM for hCGRP (8-26). The immobilized synthetic human CGRP polypeptide fragments were bound to 45 nM of hu224 Fab and the binding dissociation curves were fitted using analytical software.

[2] = target: T2, hCGRP(8-19); test: BLI (Octet), biotin-peptide on SA probe, 45 nM Fab
Protocol: as §1, §2

[3] = target: T3, hCGRP(8-26); test: BLI (Octet), biotin-peptide on SA probe, 45 nM Fab
Protocol: as §1, §2

[4] = target: T4, hCGRP(1-37); test: BLI (Octet), biotin-peptide on SA probe, 45 nM Fab
Protocol: as §1, §2

[5] = target: CGRP antigen; test: cell-based or functional assay
[6] = target: T5, Biotin-huCGRPaSA; test: ELISA, transfection supernatant, biotin-CGRP on streptavidin
Protocol: Streptavidin was diluted to 0.5 μg/mL by using PBS (Hyclone) and added into a plate at 100 μL/well. The plate was incubated in a thermostat incubator at 37° C. for 90 min and then washed. 2% BSA was added to the plate at 200 μL/well, and the plate was incubated in the thermostat incubator at 37° C. for 90 min and washed. Biotin-huCGRPaSA was diluted to 2.0 μg/mL with 2% BSA and added into the plate at 100 μL/well, and the plate was incubated in the thermostat incubator at 37° C. for 60 min. The reference antibody (47-RM) was diluted to 2500 ng/ml with a diluent (2% BSA) and serially 4-fold diluted to 0.15 ng/mL, and the chimeric antibodies were diluted with a cell supernatant stock solution. All the chimeric antibody solutions and the reference antibody solution were added into plates at 80 μL/well, and the plates were incubated in a thermostat incubator at 37° C. for 60 min and washed. An HRP-conjugated mouse anti-human antibody IgG4 (manufacturer: Southern Biotech, Cat. No. 9200-05; Fc specificity) was diluted 5000-fold with 2% BSA and added into the plates at 100 μL/well, and the plates were incubated in the thermostat incubator at 37° C. for 60 min and washed. 0.1 mg/mL chromogenic reagent TMB was carefully added at 100 μL/well to avoid bubbles, and the system was incubated at 37° C. for 10 min away from light for chromogenic reaction. Finally, a 2 M hydrochloric acid solution was added at 100 μL/well to stop the reaction while avoiding bubbles, and the plates were read on a microplate reader within 10 min (the detection wavelength was 450 nm; the reference wavelength was 620 nm).

[7] = target: T5, Biotin-huCGRPaSA; test: ELISA, purified antibody; relative to reference 47-RM-20190815
Protocol: Streptavidin was diluted to […] by using PBS (Hyclone) and added into a plate at 100 μL/well. The plate was incubated in a thermostat incubator at 37° C. for 90 min and then washed. 2% BSA was added to the plate at 200 μL/well, and the plate was incubated in the thermostat incubator at 37° C. for 90 min and washed. Biotin-huCGRPaSA was diluted to 2.0 μg/mL with 2% BSA and added into the plate at 100 μL/well, and the plate was incubated in the thermostat incubator at 37° C. for 60 min. The chimeric antibodies in Table 3 and reference antibody (47-RM-20190815) were diluted to 1000 ng/ml with a diluent (2% BSA) and serially 10-fold diluted to 1 ng/mL. All the chimeric antibody solutions and the reference antibody solution were added into plates at 100 μL/well, and the plates were incubated in a thermostat incubator at 37° C. for 60 min and washed. An HRP-conjugated mouse anti-human antibody IgG4 (manufacturer: Southern Biotech, Cat. No. 9200-05; Fc specificity) was diluted 5000-fold with 2% BSA and added into the plates at 100 μL/well, and the plates were incubated in the thermostat incubator at 37° C. for 60 min and washed. 0.1 mg/mL chromogenic reagent TMB was carefully added at 100 μL/well to avoid bubbles, and the system was incubated at 37° C. for 5 min away from light for chromogenic reaction. Finally, a 2 M hydrochloric acid solution was added at 100 μL/well to stop the reaction while avoiding bubbles, and the plates were read on a microplate reader within 10 min (the detection wavelength was 450 nm; the reference wavelength was 620 nm). EC₅₀ was fit by using a four-parameter logistic regression (4PL) model.

[8] = target: T6, Biotin-1-19 polypeptide; test: ELISA, transfection supernatant, biotin-CGRP(1-19) on streptavidin
Protocol: Streptavidin was diluted to 0.5 μg/mL by using PBS (Hyclone) and added into a plate at 100 μL/well. The plate was incubated in a thermostat incubator at 37° C. for 90 min and then washed. 2% BSA was added to the plate at 200 μL/well, and the plate was incubated in the thermostat incubator at 37° C. for 90 min and washed. Biotin-1-19 polypeptide was diluted to 2.0 μg/mL with 2% BSA and added into the plate at 100 μL/well, and the plate was incubated in the thermostat incubator at 37° C. for 60 min. The reference antibody (Lily) was diluted to 2500 ng/ml with a diluent (2% BSA) and then serially 4-fold diluted to 0.15 ng/ml. For chimeric antibodies, the stock solution was diluted. All the chimeric antibody solutions and the reference antibody solution were added into plates at 80 μL/well, and the plates were incubated in a thermostat incubator at 37° C. for 60 min and washed. An HRP-conjugated mouse anti-human antibody IgG4 (manufacturer: Southern Biotech, Cat. No. 9200-05; Fc specificity) was diluted 5000-fold with 2% BSA and added into the plates at 100 µL/well, and the plates were incubated in the thermostat incubator at 37° C. for 60 min and washed. 0.1 mg/mL chromogenic reagent TMB was carefully added at 100 μL/well to avoid bubbles, and the system was incubated at 37° C. for 10 min away from light for chromogenic reaction. Finally, a 2 M hydrochloric acid solution was added at 100 μL/well to stop the reaction while avoiding bubbles, and the plates were read on a microplate reader within 10 min (the detection wavelength was 450 nm; the reference wavelength was 620 nm).

| Binder | Relative binding activity (%) vs Ref(Teva) [5] | OD value [6] | Relative activity (%) [7] | further results |
| --- | --- | --- | --- | --- |
| hu224 Fab (Fab, V domains shown, also called Fab monomer fragments derived from humanized antibody hu224) VH: QVQLVQSGAEVKKPGASVKVSCKASGYSFTGYTMNWVRQAPGQRLEWMGLINPYIGNTHYNQKFKDRVTFTVDRSSSTAYMELSSLRSEDTAVYYCARELDSGFDYWGQGTLVTVSS VL: DVVMTQSPDSLAVSLGERATINCRSSQNIVHSNGDTYLEWYQQKPGQPPKLLIYKVSNRFSGVPDRFSGSGSGTDFTLTISSLQAEDVAVYYCYQGSHVPWTFGQGTKLEIK |  |  |  | Kd [1]: 0.0823 nM; koff [1]: 2.62e-05 s⁻¹; kon [1]: 318000 M⁻¹ s⁻¹; Kd [2]: 0.445 nM; koff [2]: 0.000151 s⁻¹; kon [2]: 341000 M⁻¹ s⁻¹; Kd [3]: 1.18 nM; koff [3]: 0.000374 s⁻¹; kon [3]: 316000 M⁻¹ s⁻¹; Kd [4]: 0.288 nM; koff [4]: 7.97e-05 s⁻¹; kon [4]: 277000 M⁻¹ s⁻¹ |
| C258 (antibody, V domains shown, 3E5-HC + 1F5-LC1; chimeric, human constant regions) VH: EVQLQQSGPELVKPGASVKISCKTSGYTFTDYNMHWVKQSHGKSLEWIGYISPYNGGTAYNQKFKFKSTLTVDTSSSTAYMELRSLTSEDSAVYYCAREGLGGYWGQGTTLTVSS VL: DIVLTQSPASLAVSLGQRATISCKASQNIDFDGYAYMNWYQHKPGQPPRVLIYSVFNLESGIPARFSGSGSGTDFTLNIHPVEEEDAATYYCQQSHEVPYTFGGGTNLEIK | 117% | 3.12 OD | 99.8% |  |
| C235 (antibody, V domains shown, 3C1-HC + 1F5-LC1; chimeric, human constant regions) VH: EVQLQQSGPELVKPGASMKISCKASGYSFTGYTMNWVKQSHGNNLEWIGLINPYIGNTHYNQKFKDKATFTVDRSSSTAYMALLSLTSEDSAVYYCARELDSGFDYWGQGTTLTVSS VL: DIVLTQSPASLAVSLGQRATISCKASQNIDFDGYAYMNWYQHKPGQPPRVLIYSVFNLESGIPARFSGSGSGTDFTLNIHPVEEEDAATYYCQQSHEVPYTFGGGTNLEIK |  |  |  | OD value [8]: 2.84 OD |
| C347 (antibody, V domains shown, 3H10-HC + 1A2-LC2; chimeric, human constant regions) VH: EVQLQQSGPELVQPGASVKISCKASGYTFTDYNMHWVKQSHGESLEWIGYIYPYNGHTVYNQKFRNKATMTVDSSSSTAYMDLRSLTSEDSAVYYCAKEGLGGYWGQGTTLTVSS VL: DIVLTQSPASLAVSLGQRATISCKASQNIDYDGYAYLNWYQQKPGQPPKVLIYSVFNLESGIPARFSGSGSGTDFTLNIHPVEEEDAATYYCQQSNEFPYTFGGGTKLEVK | 87.6% | 3.01 OD | 91.4% |  |
| C120 (antibody, V domains shown, 2B8-HC1 + 1F5-LC1; chimeric, human constant regions) VH: EVQLQQSGPELVKPGASVKISCKASGYTFTDYNMHWVKQSHGKSLEWIGNIYPYNGGTVYNQKFNNKATLTVHTSSSTAYMDLRSLTSDDSAVYYCAREGLGGYWGQGTTLTVSS VL: DIVLTQSPASLAVSLGQRATISCKASQNIDFDGYAYMNWYQHKPGQPPRVLIYSVFNLESGIPARFSGSGSGTDFTLNIHPVEEEDAATYYCQQSHEVPYTFGGGTNLEIK | 50.3% | 3.09 OD | 30.6% |  |
| C92 (antibody, V domains shown, 1F5-HC + 3H10-LC2; chimeric, human constant regions) VH: EVQLQQSGPELVKPGASVKISCKTSGYTFIDFNMHWVKQSHGKSLEWIGYIYPYNGDVVYNQNFTNKATLTVDSSSSTAYMELRRVTSEDSAIYYCAREGLGGYWGQGTTLTVSS VL: DIVLTQSPDSLAVSLGQRATISCKASQNIDYGGYSYMNWYQQKPGQPPKVLIYSVFNLESGIPARFSGSGSGTDFTLTIHPVEEEDAATYYCQQSNEAPYTFGGGTKLEIR | 108% | 3.09 OD | 68.5% |  |
| C255 (antibody, V domains shown, 3E5-HC + 1A2-LC2; chimeric, human constant regions) VH: EVQLQQSGPELVKPGASVKISCKTSGYTFTDYNMHWVKQSHGKSLEWIGYISPYNGGTAYNQKFKFKSTLTVDTSSSTAYMELRSLTSEDSAVYYCAREGLGGYWGQGTTLTVSS VL: DIVLTQSPASLAVSLGQRATISCKASQNIDYDGYAYLNWYQQKPGQPPKVLIYSVFNLESGIPARFSGSGSGTDFTLNIHPVEEEDAATYYCQQSNEFPYTFGGGTKLEVK | 74.9% | 3.11 OD | 108% |  |
| C85 (antibody, V domains shown, 1F5-HC + 3E5-LC; chimeric, human constant regions) VH: EVQLQQSGPELVKPGASVKISCKTSGYTFIDFNMHWVKQSHGKSLEWIGYIYPYNGDVVYNQNFTNKATLTVDSSSSTAYMELRRVTSEDSAIYYCAREGLGGYWGQGTTLTVSS VL: DIVLTQSPASLAVSLGQRATISCKASQNIDYDGYTYLNWYQQKPGQPPKVLIYSIFNLESGIPARFSGSGSGTDFTLNIHPVEEEDAATYYCQQSNEVPYTFGGGTKLEIK | 111% | 3.11 OD | 56.7% |  |
